From patent publication US20110045008A1

Target: platelet GPIIIa (integrin beta3) on platelets (human) (UniProt P05106)
Test: cell-based or functional assay

Sequence of platelet GPIIIa (integrin beta3) on platelets (human) (P05106 27-788): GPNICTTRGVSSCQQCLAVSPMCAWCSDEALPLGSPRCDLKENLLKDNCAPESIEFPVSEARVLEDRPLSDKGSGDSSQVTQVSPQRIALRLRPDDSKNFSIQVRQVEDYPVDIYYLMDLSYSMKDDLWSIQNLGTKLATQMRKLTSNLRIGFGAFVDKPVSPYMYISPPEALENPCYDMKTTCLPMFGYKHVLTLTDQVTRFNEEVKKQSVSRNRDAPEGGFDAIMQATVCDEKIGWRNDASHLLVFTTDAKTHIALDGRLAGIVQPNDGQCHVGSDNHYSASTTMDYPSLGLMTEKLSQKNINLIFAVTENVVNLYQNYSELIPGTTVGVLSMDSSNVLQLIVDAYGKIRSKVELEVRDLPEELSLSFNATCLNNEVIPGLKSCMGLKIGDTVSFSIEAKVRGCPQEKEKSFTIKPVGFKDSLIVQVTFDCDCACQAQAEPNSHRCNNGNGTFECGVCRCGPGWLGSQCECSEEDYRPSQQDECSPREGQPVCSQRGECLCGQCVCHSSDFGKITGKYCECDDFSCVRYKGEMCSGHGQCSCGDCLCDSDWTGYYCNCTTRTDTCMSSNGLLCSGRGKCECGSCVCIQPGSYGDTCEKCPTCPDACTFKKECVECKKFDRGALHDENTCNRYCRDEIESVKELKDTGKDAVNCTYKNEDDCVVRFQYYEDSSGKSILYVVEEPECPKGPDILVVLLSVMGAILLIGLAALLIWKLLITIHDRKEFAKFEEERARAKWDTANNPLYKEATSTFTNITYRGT

- platelet fragmentation: 85 µM
Substance: ADAMTS-18 66 amino acid fragment (1156-1221) (from UniProt Q8TE60 1156-1221) (ligand)
